The results in this text go back to US20180369403A1 (University of Texas, published 2018).

The target in assay [1] is T1, human LGR4 (leucine-rich repeat-containing G-protein coupled receptor 4) (human, UniProt Q9BXB1 25-951). The experiment in a line: cell-based or functional assay.
Assay [2] deals with T1, human LGR4 (leucine-rich …). The experiment in a line: fluorescence cell binding, HEK293 cells overexpressing LGR4, Alexa-488 anti-rat IgG.
Assay [3] has the same target. The experiment in a line: binding to live HEK293 cells stably expressing human LGR4.
A further assay has as its target T2, LGR6 (UniProt Q9HBX8 25-567, limits assumed).
T2 sequence (looked up): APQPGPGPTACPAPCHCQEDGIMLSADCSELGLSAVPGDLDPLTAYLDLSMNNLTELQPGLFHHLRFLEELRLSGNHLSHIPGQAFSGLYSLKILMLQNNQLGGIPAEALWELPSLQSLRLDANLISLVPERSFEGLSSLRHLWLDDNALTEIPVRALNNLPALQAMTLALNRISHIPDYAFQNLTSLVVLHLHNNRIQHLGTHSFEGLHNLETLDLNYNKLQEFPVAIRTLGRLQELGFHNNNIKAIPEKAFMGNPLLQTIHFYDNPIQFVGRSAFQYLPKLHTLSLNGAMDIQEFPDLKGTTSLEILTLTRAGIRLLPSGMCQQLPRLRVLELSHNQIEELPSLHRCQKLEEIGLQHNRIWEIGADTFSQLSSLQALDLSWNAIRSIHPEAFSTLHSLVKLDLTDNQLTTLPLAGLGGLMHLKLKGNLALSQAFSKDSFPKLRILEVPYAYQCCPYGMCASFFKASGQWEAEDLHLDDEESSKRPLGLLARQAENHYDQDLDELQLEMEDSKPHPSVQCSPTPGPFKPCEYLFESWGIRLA
The experiment in a line: specificity cross check analysis.

Another assay deals with T3, LGR5 (UniProt O75473 22-561, limits assumed).
T3 sequence (looked up): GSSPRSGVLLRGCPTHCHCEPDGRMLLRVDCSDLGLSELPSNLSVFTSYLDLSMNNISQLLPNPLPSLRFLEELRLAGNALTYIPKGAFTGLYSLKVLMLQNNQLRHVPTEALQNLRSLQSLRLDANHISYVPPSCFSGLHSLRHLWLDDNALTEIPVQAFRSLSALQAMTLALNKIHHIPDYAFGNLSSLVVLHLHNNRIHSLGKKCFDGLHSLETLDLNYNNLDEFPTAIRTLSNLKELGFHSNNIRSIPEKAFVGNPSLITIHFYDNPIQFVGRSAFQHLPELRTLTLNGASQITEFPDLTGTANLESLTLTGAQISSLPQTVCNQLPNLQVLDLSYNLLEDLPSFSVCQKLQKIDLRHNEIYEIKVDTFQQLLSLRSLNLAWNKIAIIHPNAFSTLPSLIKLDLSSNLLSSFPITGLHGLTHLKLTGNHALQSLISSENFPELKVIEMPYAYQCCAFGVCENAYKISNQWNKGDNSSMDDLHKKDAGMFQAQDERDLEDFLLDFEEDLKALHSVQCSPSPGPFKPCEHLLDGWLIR
As to the kind of experiment: specificity cross check analysis.

The target of the next assay is T4, mouse LGR4 (mouse, UniProt A2ARI4 25-951).
T4 construct: whole, on cells; also called native mouse receptor; HEK293-LGR4-mouse
The experiment in a line: Western blot, lane HEK293-LGR4-mouse. In general terms: In western blotting, separated proteins are transferred to a membrane and probed.

Several values for one entry are separate records, joined by “and”; a condition that tells them apart may be missing. Identical values can stand only once.

B1: 8D2-MC-VC-PAB-MMAE (antibody, V domains shown)
VH: QVQLQQSGAELVKPGASVNLSCKTSGYTFSTSYMSWFKQIPGQTIEWVGLIYVGAGGPTYNQKFKGKASLTVDTSSSTAYMDLSSLTAEDSAVYFCARVRGYAMDAWGQGTSVTVSS
VL: DIVLTQSPATLSVTPGESVSLSCRASQDISTSIHWYQQKSNESPRLLIKYASQSISGIPSRFSGGGSGTDFTLTINRVESEDFSVYYCQQSYSLPVTFGSGTKLELKR
modifications: MMAE (auristatin) attached through an MC-VC-PAB (maleimidocaproyl-valine-citrulline-p-aminobenzyloxycarbonyl) linker; sites and chain of attachment not stated
With B1, in assay [1], the “IC50, cell viability of IGROV1 cells (CelltiterGlo, 4 days)” value is roughly 0.3 µg/mL; the “IC50, cell viability of OVCAR3 cells (CelltiterGlo, 4 days)” value is roughly 0.03 µg/mL; the “IC50, cell viability of SKOV3 cells (CelltiterGlo, 4 days)” value is 2.4 µg/mL.

B2: anti-LGR4 monoclonal antibody 8D2 (antibody, V domains shown)
VH: B1 VH
VL: B1 VL
notes: also called mAb 8D2; LGR4-mAb-8D2
Turning to B2, the Kd was 0.5 µg/mL in assay [2]; ~0.1 µg/mL and ~0.7 nM in assay [3]. Moreover, the figures for the binding result with LGR6, with LGR5 and in the assay with mouse LGR4 were “no binding”, “no binding” and “binds”, respectively.

B3: anti-LGR4 monoclonal antibody 3G6 (antibody, V domains shown)
VH: QVQLQQSGAELVKPGSSVKISCKASGYTFTSNFMHWIKQQPGNGLEWIGWIYPGDGDTDYNQKFIGKATLTADKSSSTAYMQLSSLTSEDSAVYFCSRSNSGYNWFAYWGQGTLVTVSS
VL: DIVLTQSPPVLSASVGDRVTLSCKASQNINKNLDWYQQKHGEAPKLLIYYTNNLQTGIPSRFSGSGSGTDYTLTIRSLQPEDVATYYCYQYRTGWTFGGGTKLELKR
notes: Rat monoclonal antibody; also called clone 3G6
In assay [2], B3 displayed a Kd of 0.1 µg/mL.

A word on the Kd: it is the free concentration of one partner at which half of the binding sites on the other are occupied at equilibrium, for simple one-to-one binding. Read a low Kd as a tighter complex.
